# Measurements published in the supplement of paper PMC9112550, “Optimization of the antimicrobial peptide Bac7 by deep mutational scanning” (BMC Biology, 2022).
# System: Escherichia coli TOP10
# Assay: shrunken log2 fold change of peptide-encoding DNA abundance (4.5 h post-induction vs induction); higher = less antimicrobial activity (less host growth inhibition)
# Settings: time post-induction: 4.5 h; library: site-saturation at positions 5, 18, 19, 20
# 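Note: peptides expressed intracellularly from a pBAD plasmid library in pooled LB shake-flask culture, induced with 0.3% L-arabinose, DNA abundance read by NGS, three biological replicates, DESeq2 with apeglm shrinkage.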
row,Sequence,shrunken log2 fold change
1,RRIRTRPPRLPRPRPRPSGRPRP,0.0348
2,RRIRIRPPRLPRPRPRPYWLPRP,-0.413
3,RRIRYRPPRLPRPRPRPFKVPRP,-0.123
4,RRIRNRPPRLPRPRPRPPCVPRP,0.0341
5,RRIRTRPPRLPRPRPRPFDLPRP,-0.29
6,RRIRKRPPRLPRPRPRPPETPRP,0.651
7,RRIRIRPPRLPRPRPRPWWTPRP,-0.0807
8,RRIRTRPPRLPRPRPRPVRAPRP,0.514
9,RRIRSRPPRLPRPRPRPYKAPRP,-0.0488
10,RRIRGRPPRLPRPRPRPQLSPRP,0.0797
11,RRIRVRPPRLPRPRPRPCLTPRP,-0.0353
12,RRIRHRPPRLPRPRPRPAQPPRP,0.1
13,RRIRRRPPRLPRPRPRPYNTPRP,-0.436
14,RRIRARPPRLPRPRPRPTELPRP,0.595
15,RRIRVRPPRLPRPRPRPITCPRP,-0.324
16,RRIRSRPPRLPRPRPRPTSEPRP,0.292
17,RRIRSRPPRLPRPRPRPTCNPRP,0.0589
18,RRIRERPPRLPRPRPRPNVYPRP,-0.439
19,RRIRCRPPRLPRPRPRPGSVPRP,0.102
20,RRIRWRPPRLPRPRPRPENPPRP,-0.0117
21,RRIRSRPPRLPRPRPRPVCVPRP,0.0943
22,RRIRVRPPRLPRPRPRPFGEPRP,0.092
23,RRIRLRPPRLPRPRPRPVMIPRP,-0.269
24,RRIRMRPPRLPRPRPRPFKWPRP,-0.0704
25,RRIRHRPPRLPRPRPRPMTAPRP,-0.135

row,Sequence,shrunken log2 fold change
1,RRIRHRPPRLPRPRPRPEQNPRP,0.0816
2,RRIRNRPPRLPRPRPRPGLCPRP,0.685
3,RRIRFRPPRLPRPRPRPVVNPRP,-0.026
4,RRIRTRPPRLPRPRPRPTNLPRP,-0.0724
5,RRIRKRPPRLPRPRPRPLCFPRP,0.188
6,RRIRERPPRLPRPRPRPITGPRP,-0.0908
7,RRIRLRPPRLPRPRPRPYVKPRP,-0.182
8,RRIRHRPPRLPRPRPRPPWAPRP,0.226
9,RRIRDRPPRLPRPRPRPFCFPRP,0.265
10,RRIRVRPPRLPRPRPRPIDVPRP,-0.0749
11,RRIRPRPPRLPRPRPRPWVNPRP,-0.11
12,RRIRERPPRLPRPRPRPPQHPRP,0.128
13,RRIRRRPPRLPRPRPRPENTPRP,-0.0822
14,RRIRSRPPRLPRPRPRPEPEPRP,0.102
15,RRIRNRPPRLPRPRPRPISTPRP,-0.507
16,RRIRWRPPRLPRPRPRPWRGPRP,0.389
17,RRIRGRPPRLPRPRPRPRNAPRP,0.619
18,RRIRRRPPRLPRPRPRPAWQPRP,0.561
19,RRIRSRPPRLPRPRPRPNAFPRP,-0.0168
20,RRIRHRPPRLPRPRPRPYDGPRP,-0.00992
21,RRIRYRPPRLPRPRPRPTDQPRP,-0.175
22,RRIRYRPPRLPRPRPRPMYIPRP,-0.0194
23,RRIRKRPPRLPRPRPRPFDIPRP,-0.0132
24,RRIRWRPPRLPRPRPRPVYEPRP,-0.00561
25,RRIRYRPPRLPRPRPRPYETPRP,0.112

row,Sequence,shrunken log2 fold change
1,RRIRERPPRLPRPRPRPMPFPRP,0.00529
2,RRIRCRPPRLPRPRPRPNMPPRP,-0.627
3,RRIRFRPPRLPRPRPRPHNTPRP,-0.796
4,RRIRGRPPRLPRPRPRPTWYPRP,0.159
5,RRIRFRPPRLPRPRPRPGMLPRP,-0.169
6,RRIRQRPPRLPRPRPRPGHMPRP,0.0335
7,RRIRRRPPRLPRPRPRPIKSPRP,-0.254
8,RRIRKRPPRLPRPRPRPFCDPRP,0.144
9,RRIRVRPPRLPRPRPRPCAIPRP,-0.379
10,RRIRPRPPRLPRPRPRPPEIPRP,-0.0297
11,RRIRFRPPRLPRPRPRPFHHPRP,-0.976
12,RRIRARPPRLPRPRPRPHDCPRP,-0.16
13,RRIRHRPPRLPRPRPRPSYHPRP,-1.11
14,RRIRNRPPRLPRPRPRPRGFPRP,0.443
15,RRIRYRPPRLPRPRPRPLKPPRP,-0.696
16,RRIRIRPPRLPRPRPRPAQHPRP,-0.0384
17,RRIRTRPPRLPRPRPRPHKYPRP,-0.295
18,RRIRFRPPRLPRPRPRPFWWPRP,0.398
19,RRIRMRPPRLPRPRPRPSCEPRP,0.541
20,RRIRKRPPRLPRPRPRPIINPRP,0.172
21,RRIRIRPPRLPRPRPRPTKGPRP,0.0205
22,RRIRRRPPRLPRPRPRPCPIPRP,0.0892
23,RRIRHRPPRLPRPRPRPYHFPRP,-0.686
24,RRIRIRPPRLPRPRPRPLWIPRP,-0.445
25,RRIRTRPPRLPRPRPRPTTDPRP,-0.0867
